In paper PMC10912764:

Assays:
[1] = target: amyloid-β peptide Aβ (1–42) (UniProt P05067)
[2] = target: amyloid-β peptide Aβ (1–42) (UniProt P05067); remark: listed apart in the source

Sequence of E. coli CsgA protein with a C-terminal 6× His tag (P28307 21-151): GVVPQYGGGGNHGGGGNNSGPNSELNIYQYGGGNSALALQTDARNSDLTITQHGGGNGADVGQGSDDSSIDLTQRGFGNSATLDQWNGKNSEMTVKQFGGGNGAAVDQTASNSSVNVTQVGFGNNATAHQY

## E. coli CsgA protein with a C-terminal 6× His tag (from UniProt P28307 21-151) (natural protein)
[1]
  inhibition of Aβ aggregation (ThT fluorescence; 75 µM Aβ with 10 µM CsgA, excess Aβ 7.5:1): 43%
  lag phase of Aβ aggregation (ThT) with CsgA; approximately 150 h without CsgA: 175 h
[2]
  inhibition of Aβ aggregation (ThT fluorescence; 75 µM Aβ with 10 µM CsgA), as given in the legend: 47%
